Experimental data reported in the RNAGym collection of RNA variant scans (doi:10.1093/molbev/msab373).

B1: Azoarcus group I ribozyme (parent)
chain: GUGCCUUGCGCCGGGAAACCACGCAAGGGAUGGUGUCAAAUUCGGCGAAACCUAAGCGCCCGCCCGGGCGUAUGGCAACGCCGAGCCAAGCUUCGGCGCCUGCGCCGAUGAAGGUGUAGAGACUAGACGGCACCCACCUAAGGCAAACGCUAUGGUGAAGGCAUAGUCCAGGGAGUGGCGAAAGUCACACAAACCGG

Variants of: B1
Test: reverse-splicing fitness (ratio to wild type); higher = more active; in vitro selection; Mg2+ level not given
In short: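 An in vitro group I ribozyme library with randomized positions was T7-transcribed and gel-purified. In triplicate, 10 pmol RNA in EPPS pH 7.5 was reacted with 50 pmoles of a 30-nt RNA substrate for 1 h at 37 °C across several added MgCl2 levels (1–48 mM), then stopped with EDTA. Products were reverse transcribed from a substrate-complementary primer, PCR-amplified and sequenced (HiSeq 4000). Fitness is a variant's read proportion after selection over that before, normalised to wild type.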

Variant	reverse-splicing fitness
GUGCCUUGCGCCGGGAAACCACGCAAGGGAUGGUGUCAAAUUCGGCGAAACCUAAGCGCCCGCCCGGGCGUAUGGCAACGCCGAGCCAAGCUUCGGCGCCUGCGCCGAUGGAGGUGUAGCGACUAGACGGCACCCACCUAAGGCUAACGUUAUGGUGAAGGCAUAGUCUAGGGAGCGGCGAAAGUCACACAAACCGG [A111G A120C A145U C150U C169U U176C]	0.051
GUGCCUUGCGCCGGGAAACCACGCAAGGGAUGGUGUCAAAUUCGGCGAAACCUAAGCGCCCGCCCGGGCGUAUGGCAACGCCGAGCCAAGCUUCGGCGCCUGCGCCGAUGGAGGUGUAGCGACUAGACGGCACCCACCUAAGGCUAACGUUAUGGUGAAGGCAUAGUCUAGGGAGGGGCGAAAGUCACACAAACCGG [A111G A120C A145U C150U C169U U176G]	0.00606
GUGCCUUGCGCCGGGAAACCACGCAAGGGAUGGUGUCAAAUUCGGCGAAACCUAAGCGCCCGCCCGGGCGUAUGGCAACGCCGAGCCAAGCUUCGGCGCCUGCGCCGAUGGAGGUGUAGCGACUAGACGGCACCCACCUAAGGCUAACGUUAUGGUGAAGGCAUAGUCUAGGGAGAGGCGAAAGUCACACAAACCGG [A111G A120C A145U C150U C169U U176A]	0.0423
GUGCCUUGCGCCGGGAAACCACGCAAGGGAUGGUGUCAAAUUCGGCGAAACCUAAGCGCCCGCCCGGGCGUAUGGCAACGCCGAGCCAAGCUUCGGCGCCUGCGCCGAUGGAGGUGUAGCGACUAGACGGCACCCACCUAAGGCUAACGUUAUGGUGAAGGCAUAGUCUAGGGAGUGGCGAAAGUCACACAAACCGG [A111G A120C A145U C150U C169U]	0.173
GUGCCUUGCGCCGGGAAACCACGCAAGGGAUGGUGUCAAAUUCGGCGAAACCUAAGCGCCCGCCCGGGCGUAUGGCAACGCCGAGCCAAGCUUCGGCGCCUGCGCCGAUGGAGGUGUAGCGACUAGACGGCACCCACCUAAGGCUAACGCUAUGGUGAAGGCAUAGUCGAGGGAGCGGCGAAAGUCACACAAACCGG [A111G A120C A145U C169G U176C]	0.00882
GUGCCUUGCGCCGGGAAACCACGCAAGGGAUGGUGUCAAAUUCGGCGAAACCUAAGCGCCCGCCCGGGCGUAUGGCAACGCCGAGCCAAGCUUCGGCGCCUGCGCCGAUGGAGGUGUAGCGACUAGACGGCACCCACCUAAGGCUAACGCUAUGGUGAAGGCAUAGUCGAGGGAGGGGCGAAAGUCACACAAACCGG [A111G A120C A145U C169G U176G]	0.0045
GUGCCUUGCGCCGGGAAACCACGCAAGGGAUGGUGUCAAAUUCGGCGAAACCUAAGCGCCCGCCCGGGCGUAUGGCAACGCCGAGCCAAGCUUCGGCGCCUGCGCCGAUGGAGGUGUAGCGACUAGACGGCACCCACCUAAGGCUAACGCUAUGGUGAAGGCAUAGUCGAGGGAGAGGCGAAAGUCACACAAACCGG [A111G A120C A145U C169G U176A]	0.00894
GUGCCUUGCGCCGGGAAACCACGCAAGGGAUGGUGUCAAAUUCGGCGAAACCUAAGCGCCCGCCCGGGCGUAUGGCAACGCCGAGCCAAGCUUCGGCGCCUGCGCCGAUGGAGGUGUAGCGACUAGACGGCACCCACCUAAGGCAAACGAUAUGGUGAAGGCAUAGUCGAGGGAGAGGCGAAAGUCACACAAACCGG [A111G A120C C150A C169G U176A]	0.0214
GUGCCUUGCGCCGGGAAACCACGCAAGGGAUGGUGUCAAAUUCGGCGAAACCUAAGCGCCCGCCCGGGCGUAUGGCAACGCCGAGCCAAGCUUCGGCGCCUGCGCCGAUGGAGGUGUAGCGACUAGACGGCACCCACCUAAGGCUAACGUUAUGGUGAAGGCAUAGUCCAGGGAGCGGCGAAAGUCACACAAACCGG [A111G A120C A145U C150U U176C]	0.357
GUGCCUUGCGCCGGGAAACCACGCAAGGGAUGGUGUCAAAUUCGGCGAAACCUAAGCGCCCGCCCGGGCGUAUGGCAACGCCGAGCCAAGCUUCGGCGCCUGCGCCGAUGGAGGUGUAGCGACUAGACGGCACCCACCUAAGGCUAACGUUAUGGUGAAGGCAUAGUCCAGGGAGGGGCGAAAGUCACACAAACCGG [A111G A120C A145U C150U U176G]	0.0965
GUGCCUUGCGCCGGGAAACCACGCAAGGGAUGGUGUCAAAUUCGGCGAAACCUAAGCGCCCGCCCGGGCGUAUGGCAACGCCGAGCCAAGCUUCGGCGCCUGCGCCGAUGGAGGUGUAGCGACUAGACGGCACCCACCUAAGGCUAACGUUAUGGUGAAGGCAUAGUCCAGGGAGAGGCGAAAGUCACACAAACCGG [A111G A120C A145U C150U U176A]	0.365
GUGCCUUGCGCCGGGAAACCACGCAAGGGAUGGUGUCAAAUUCGGCGAAACCUAAGCGCCCGCCCGGGCGUAUGGCAACGCCGAGCCAAGCUUCGGCGCCUGCGCCGAUGGAGGUGUAGCGACUAGACGGCACCCACCUAAGGCUAACGUUAUGGUGAAGGCAUAGUCGAGGGAGGGGCGAAAGUCACACAAACCGG [A111G A120C A145U C150U C169G U176G]	0.00446
GUGCCUUGCGCCGGGAAACCACGCAAGGGAUGGUGUCAAAUUCGGCGAAACCUAAGCGCCCGCCCGGGCGUAUGGCAACGCCGAGCCAAGCUUCGGCGCCUGCGCCGAUGGAGGUGUAGCGACUAGACGGCACCCACCUAAGGCUAACGCUAUGGUGAAGGCAUAGUCAAGGGAGCGGCGAAAGUCACACAAACCGG [A111G A120C A145U C169A U176C]	0.0103
GUGCCUUGCGCCGGGAAACCACGCAAGGGAUGGUGUCAAAUUCGGCGAAACCUAAGCGCCCGCCCGGGCGUAUGGCAACGCCGAGCCAAGCUUCGGCGCCUGCGCCGAUGGAGGUGUAGCGACUAGACGGCACCCACCUAAGGCUAACGCUAUGGUGAAGGCAUAGUCAAGGGAGGGGCGAAAGUCACACAAACCGG [A111G A120C A145U C169A U176G]	0.00333
GUGCCUUGCGCCGGGAAACCACGCAAGGGAUGGUGUCAAAUUCGGCGAAACCUAAGCGCCCGCCCGGGCGUAUGGCAACGCCGAGCCAAGCUUCGGCGCCUGCGCCGAUGGAGGUGUAGCGACUAGACGGCACCCACCUAAGGCUAACGCUAUGGUGAAGGCAUAGUCAAGGGAGAGGCGAAAGUCACACAAACCGG [A111G A120C A145U C169A U176A]	0.00811
